# Measurements taken from PMC2938849.
# Target: Hsp104ΔM (yeast) (UniProt P31539)
# Assay: SEC
substance,measurement,value
Hsp104ΔM (from UniProt P31539 1-908) (natural protein),stoichiometry N,6
